The results in this text go back to the Immune Epitope Database (IEDB).

For assay [1], the target named is HLA-A*02:01. The assay is described as follows: IEDB peptide-MHC binding, purified MHC/direct/fluorescence; filed as Kd, often an IC50 or EC50 that approximates it; ≥ and ≤ were set here for values at or beyond the usual limits of such assays.
Assay [2] concerns the target HLA-A*02:03. The assay is described as above.
Assay [3] concerns the target HLA-A*02:11. The assay is described as above.
In assay [4] the target is HLA-A*02:12. The description is as above.
Assay [5] addresses HLA-A*02:16. Described as above.
Assay [6] deals with HLA-A*02:19. The description is as above.
Assay [7] addresses HLA-A*03:01. Described as above.
The target of assay [8] is HLA-A*26:01. The description is as above.
The target of assay [9] is HLA-A*68:02. The description is as above.
The target of assay [10] is HLA-B*15:01. The assay is described as above.
The target of assay [11] is HLA-B*18:01. The assay is described as above.
The target of assay [12] is HLA-B*27:03. Described as above.
In assay [13] the target is HLA-B*39:01. Described as above.
The target of assay [14] is HLA-B*46:01. Described as above.
Assay [15] addresses HLA-B*51:01. The assay is described as above.
For assay [16], the target named is HLA-B*57:01. Described as above.
Assay [17] concerns the target HLA-A*24:03. The assay is described as above.
Assay [18] addresses HLA-A*29:02. Described as above.
In assay [19] the target is HLA-A*23:01. Described as above.
Assay [20] concerns the target HLA-A*02:01. Put plainly: IEDB peptide-MHC binding, purified MHC/competitive/fluorescence; filed as Kd, often an IC50 or EC50 that approximates it; ≥ and ≤ were set here for values at or beyond the usual limits of such assays.
In assay [21] the target is HLA-A*26:01. The assay is described as above.
Assay [22] has as its target HLA-A*69:01. Described as above.
Assay [23] concerns the target HLA-B*15:01. The description is as above.
Assay [24] deals with HLA-B*18:01. The assay is described as above.
In assay [25] the target is HLA-B*27:05. The description is as above.
The target in assay [26] is HLA-B*39:01. Described as above.
In assay [27] the target is HLA-B*46:01. The description is as above.
The target in assay [28] is HLA-B*51:01. The description is as above.
Assay [29] concerns the target HLA-B*57:01. Described as above.
Assay [30] deals with HLA-B*15:17. The description is as above. To be noted: source organism: Orthohantavirus negraense.
For assay [31], the target named is HLA-A*69:01. The assay is described as follows: IEDB peptide-MHC binding, purified MHC/direct/fluorescence; filed as Kd, often an IC50 or EC50 that approximates it; ≥ and ≤ were set here for values at or beyond the usual limits of such assays. The settings on record: source organism: Bacillus cereus G9842.
Setting [32] is: source organism: Mycobacterium tuberculosis str. Haarlem.
[33] abbreviates: source organism: Rickettsia bellii RML369-C.
Where [34] appears, read: source organism: Orthohantavirus tulaense.
The mark [35] stands for this setting: source organism: Orthohantavirus negraense.
Setting [36] is: source organism: Bacillus cereus G9842.
[37] abbreviates: source organism: Entamoeba histolytica HM-1:IMSS.

LPVEYLQVP: the Kd in assay [1] (setting [32]), in assay [2] (setting [32]), in [3] (setting [32]), in assay [4] (setting [32]), in assay [5] (setting [32]) and in assay [6] (setting [32]) was at least 20 µM throughout. Also, the Kd in [7] (setting [32]), in [8] (setting [32]), in assay [9] (setting [32]), in [10] (setting [32]), in assay [11] (setting [32]) and in assay [12] (setting [32]) was at least 20 µM in each case. The Kd in assay [13] (setting [32]), in assay [14] (setting [32]), in [15] (setting [32]) and in assay [16] (setting [32]) was at least 20 µM in each case.

As for NPLEIYQEI, the Kd in assay [1] (setting [33]), in [2] (setting [33]), in assay [3] (setting [33]), in assay [4] (setting [33]), in assay [5] (setting [33]) and in assay [6] (setting [33]) was at least 20 µM throughout. In addition, the dissociation constant (Kd) in [7] (setting [33]), in [17] (setting [33]), in assay [8] (setting [33]), in [18] (setting [33]), in [10] (setting [33]) and in assay [11] (setting [33]) was at least 20 µM throughout. In addition, the Kd (as a rule, a measure of binding affinity in units of concentration) in assay [12] (setting [33]) was at least 20 µM; in assay [13] (setting [33]) it was at least 20 µM; in assay [14] (setting [33]), at least 20 µM; in assay [15] (setting [33]), 0.132 µM; in assay [16] (setting [33]) it was at least 20 µM.

For RRAYSGKQY, the Kd in assay [2] (setting [34]), in [3] (setting [34]), in [4] (setting [34]), in [5] (setting [34]), in assay [6] (setting [34]) and in assay [7] (setting [34]) was at least 20 µM in each case. Further, the Kd in assay [19] (setting [34]), in assay [17] (setting [34]), in assay [18] (setting [34]), in assay [9] (setting [34]), in assay [20] (source organism: Kurkino virus) and in assay [21] (source organism: Kurkino virus) was at least 20 µM in each case. Further, the Kd in assay [22] (source organism: Kurkino virus) is at least 20 µM; in assay [23] (source organism: Kurkino virus), at least 20 µM; in [24] (source organism: Kurkino virus) it was at least 20 µM; in assay [25] (source organism: Kurkino virus), 0.23 µM; in assay [26] (source organism: Kurkino virus), at least 20 µM; in assay [27] (source organism: Kurkino virus) it was at least 20 µM. The Kd in assay [28] (source organism: Kurkino virus) and in [29] (source organism: Kurkino virus) was at least 20 µM throughout.

Take RRFTQAIYD: the Kd in [2] (setting [35]), in [3] (setting [35]), in assay [4] (setting [35]), in assay [5] (setting [35]), in assay [6] (setting [35]) and in assay [7] (setting [35]) was at least 20 µM throughout. Besides, the Kd in assay [19] (setting [35]), in [17] (setting [35]), in assay [18] (setting [35]), in assay [9] (setting [35]), in [20] (setting [35]) and in assay [21] (setting [35]) was at least 20 µM in each case. For the same sequence, the Kd in assay [22] (setting [35]) is at least 20 µM; in [23] (setting [35]), at least 20 µM; in [30] it was at least 20 µM; in [24] (setting [35]), at least 20 µM; in assay [25] (setting [35]) it was 0.317 µM; in [26] (setting [35]) it was at least 20 µM. Further, the Kd in assay [27] (setting [35]), in assay [28] (setting [35]) and in assay [29] (setting [35]) was at least 20 µM each time.

In the case of TQIPRQMVL, the Kd in [1] (setting [36]), in assay [3] (setting [36]), in assay [4] (setting [36]), in [5] (setting [36]), in assay [6] (setting [36]) and in [7] (setting [36]) was at least 20 µM in each case. Further, the Kd in assay [17] (setting [36]), in [8] (setting [36]), in assay [18] (setting [36]), in assay [9] (setting [36]), in [31] and in [11] (setting [36]) was at least 20 µM throughout. For the same sequence, the Kd in assay [12] (setting [36]), in assay [14] (setting [36]) and in assay [16] (setting [36]) was at least 20 µM in each case.

Take VKINIFPLY: the equilibrium dissociation constant (Kd) in assay [1] (setting [37]), in assay [2] (setting [37]), in assay [4] (setting [37]), in assay [5] (setting [37]), in [6] (setting [37]) and in assay [7] (setting [37]) was at least 20 µM each time. Moreover, the Kd in assay [8] (setting [37]), in [9] (setting [37]), in [12] (setting [37]), in assay [13] (setting [37]), in assay [14] (setting [37]) and in [15] (setting [37]) was at least 20 µM in each case. In assay [16] (setting [37]), this sequence came in with a Kd of at least 20 µM.
